Results on one substance are retold here after US20030216345A1.

The target in this assay is acetylated α-tubulin. Kind of assay: cell-based or functional assay.

The substance “histone deacetylase 6 (HDAC6), full-length, His6 fused at N-terminal (from UniProt Q9UBN7 1-1215)” had a decrease in degree of acetylation of α-tubulin (Western blot of HeLa cells overexpressing HDAC6) of 50%.
